In article PMC3034293 (Biochemistry, 2011):

Target: the molecule itself
Experiment: SEC

B1: Wild-type aldolase B (enzyme, human, UniProt P05062 1-364, looked up)
chain: MAHRFPALTQEQKKELSEIAQSIVANGKGILAADESVGTMGNRLQRIKVENTEENRRQFREILFSVDSSINQSIGGVILFHETLYQKDSQGKLFRNILKEKGIVVGIKLDQGGAPLAGTNKETTIQGLDGLSERCAQYKKDGVDFGKWRAVLRIADQCPSSLAIQENANALARYASICQQNGLVPIVEPEVIPDGDHDLEHCQYVTEKVLAAVYKALNDHHVYLEGTLLKPNMVTAGHACTKKYTPEQVAMATVTALHRTVPAAVPGICFLSGGMSEEDATLNLNAINLCPLPKPWKLSFSYGRALQASALAAWGGKAANKEATQEAFMKRAMANCQAAKGQYVHTGSSGAASTQSLFTACYTY
stoichiometry N: 4
